Target: T1, protein VZV gE (amino acid sequence at positions 48 to 88) (varicella-zoster virus)
T1 peptide: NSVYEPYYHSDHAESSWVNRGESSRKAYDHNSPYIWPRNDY
Test: ELISA, peptide coated on the plate, antibody at 5 ug/mL
Description: After 16 hours, the gE solution was removed, and the well was washed three times with 300 μL of PBST (0.05% Tween 20 in PBS). The liquid remaining in the well was removed by tapping on a paper towel.
As a blocking solution, 300 μL of 5% BSA in PBST (BSA: manufactured by Oriental Yeast Co., Ltd.) was added, followed by incubation at 37° C. for 1 hour. Thereafter, the BSA solution was removed, and the well was washed three times with 300 μL of PBST (0.05% Tween 20 in PBS). The liquid remaining in the well was removed by tapping on a paper towel. […] Thereafter, the primary antibody solution was removed, and the well was washed three times with 300 μL of PBST (0.05% Tween 20 in PBS).

B1: Antibody 18 (antibody, V domains shown)
VH: EVQLQESGPGLVKPSQSLSLTCTVTGYSITSDYAWNWIRQFPGNKLEWMGYISYSGNSSYNPSLKSRISFTRDTSKNQFFLQLNSVTTEDTATYYCARDGSRGFDYWGQGTTLTVSS
VL: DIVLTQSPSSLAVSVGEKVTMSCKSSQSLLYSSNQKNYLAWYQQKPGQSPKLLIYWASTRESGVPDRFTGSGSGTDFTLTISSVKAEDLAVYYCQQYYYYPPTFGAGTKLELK
notes: also called antibody (II); monoclonal antibody produced by Hybridoma 18
binding result: binds
